Conditions in all cases: 1 mM MgCl2, 0.5 mM EDTA, 0.5 mM DTT, 50 mM NaCl, 10 mM Tris-HCl pH 7.5, 0.05 mg/ml poly(dI-dC), 10 ul, room temperature 30 min; footprinting in same buffer …
Series [1] concerns the target T1, His-AphA (Vibrio parahaemolyticus RIMD 2210633) (UniProt Q87L53).
T1 sequence: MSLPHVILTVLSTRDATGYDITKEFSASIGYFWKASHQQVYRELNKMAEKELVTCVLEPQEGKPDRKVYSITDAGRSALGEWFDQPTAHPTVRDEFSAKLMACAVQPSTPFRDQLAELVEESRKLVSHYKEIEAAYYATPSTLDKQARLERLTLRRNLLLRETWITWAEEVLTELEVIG
As to the kind of experiment: DNase I footprinting.

The target in series [2] is T1, His-AphA (Vibrio parahaemolyticus RIMD 2210633). In words: EMSA. (In general: Mobility shift assays separate free from complexed probe on a gel.)
The target is the same in series [3]. In words: competition.

Five sequences from PMC3440409 can be followed below.

With “CGACGCATTATTAACCAGCACTTTCGCAAATTGCATTTGCAAAATGCAATAGCATGCAAATATGCCACTTGTTACATTGCTACTAATCACTTTCTCAGCAAAAAACCAACTACTACTTTATGATTATCCATTAGCTTTCATATTTTTACCCTATACTGCTAATTAATGAGGAAAAATACCTCAGTAAATGGATTTCACGGTT (double strand) [qrr4 promoter fragment]”, the binding result in series [1] and in series [2] was “binds” each time.
Regarding “AGTGGTTGCTTATGAATCAATCCCAGGAAAAGGCGAGAACAGCGAACCTTCAACTCGTTAACATTTTATTTTCATTTACATTTTGACTAACTCAATTGTTAATAAATTACCTAAATTGCATTTTGAAATTGCAGAATGCAATTAAGTTTTGTTTTTTGCAAAAATTTATATAGGCAATATCAGTTTATATGAGATCTTGTGCCCAAAAATAAAGCTTTGAAAATTGGCATGATTAATGCATAATACTTCTCGACC (double strand) [qrr2 promoter fragment]”, the binding result in series [2] is given as “no binding”.
For the sequence “GGATAAGTTCAAATTGGATCCAGCCTTAGCAGGCTCGGTTATTCTAACGACAGTGACAGATGTGGTTGGTTTTTTCGCCTTTTTGGGAACGGCGAGTTTAGTCATGCTCTAAAAAGTCCACTGTTTATTAATCAATCATTAGCATAATAGAGACAAATTGCATAACGCACTTGCAAATTGCAAAAACATTCAAAGTTTAAGCAACGTATGTCACAGAAACCAC (double strand) [qrr3 promoter fragment]”, in series [2], the binding entry is on record as “no binding”.
With “AGTGGGTTGAAAGTCACATCCTTTTGCGGAAAATTCTTGGGAGCGCTGCCAAATTTTCGAAAGTTTACAGCAAAACTTATCAATAATAATGACATTACTGTCTATAAATTATCCATCAGATGTTGACCTTGTGCATATGCACCATTACACTCATCACTGCTTAAAGCAATTATTAAAATAATCAATTAGGGGGTTACCCCCAACAACAACTCAAATGGCAAGGAAAATGGATATGGACTCAATTGCAAAGAGACCTAGAACTAGGC (double strand) [opaR promoter fragment (footprinting)]”, in series [1], the binding result is “binds”.
Take “AACTTCCAACCACATAATTGCGCAGCAAATAACCAGACATTTACACTACAAAAAACCCATAAAATACCAACAAATTAGAATTATTAACTACAAAATAACTCTATTGAGTATTATGTTAGTTTTTCAGGGTAATTTTGTCCTAGTATTCCACTTCATGCTTATTATTTATATACTACTTGCCTGCTGAGAGCTCATAAATCCAATCATACCTGCTCCAGCC (double strand) [aphA promoter fragment]”: the binding entry in series [1], in series [2] and in series [3] was “binds” in each case.
